Experimental data published in article PMC3948627.

Target: Aha1 I64X (pAzpa at position 64) with C-terminal V5/His6-tag (S. cerevisiae) (UniProt Q12449)
Assay: cross-linking; in vivo photo-cross-linking (pAzpa, UV 365 nm), crosslink product immunoprecipitated by anti-V5, separated by 6% SDS-PAGE, band digested and identified by MALDI-TOF/MS

## Aha1 I64X (pAzpa at position 64) with C-terminal V5/His6-tag (from UniProt Q12449 1-350)
  stoichiometry N: 2
